Test [1] concerns the target T1, human BCMA (human, UniProt Q02223 1-184).
T1 construct: whole, on cells; also called hBCMA; tumor necrosis factor receptor superfamily member 17
T1 sequence (looked up): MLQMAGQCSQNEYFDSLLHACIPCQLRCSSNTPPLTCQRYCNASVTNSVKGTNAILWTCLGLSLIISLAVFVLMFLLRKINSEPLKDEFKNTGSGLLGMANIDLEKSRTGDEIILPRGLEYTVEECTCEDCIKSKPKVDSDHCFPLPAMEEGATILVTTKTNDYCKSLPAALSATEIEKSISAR
The experiment in a line: flow cytometry (FACS) on HEK293T-hBCMA and NCI-H929 cells, legend of FIG. 32. In general terms: Flow cytometry measures light scatter and fluorescence of single cells or particles in a stream.

In test [2] the target is T1, human BCMA. Nature of the test: flow cytometry (FACS) on HEK293T-hBCMA cells.
The next test has as its target T2, human CTLA4 (human, UniProt P16410 36-223).
T2 construct: whole, on cells; HEK293T cell strain HEK293/hCTLA4 highly expressing human CTLA4 (constructed by Harbour BioMed); also called hCTLA4; CD152
T2 sequence (looked up): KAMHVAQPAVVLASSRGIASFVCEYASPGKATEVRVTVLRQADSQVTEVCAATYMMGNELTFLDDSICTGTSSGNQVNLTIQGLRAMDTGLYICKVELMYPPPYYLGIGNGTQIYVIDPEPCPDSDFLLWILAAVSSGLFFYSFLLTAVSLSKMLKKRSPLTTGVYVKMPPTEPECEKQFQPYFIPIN
Nature of the test: flow cytometry (FACS) on HEK293/hCTLA4 cells. The method, then:
The binding ability of the antibody molecules to an HEK293T cell strain HEK293/hCTLA4 (constructed by Harbour BioMed) highly expressing human CTLA4 and other cells was determined by flow cytometry FACS. Specifically, the HEK293/hCTLA4 cells were digested and resuspended in a DMEM medium, with the cell density adjusted to 1×10⁶ cells/mL. HEK293 cells not expressing CTLA4 were used as a negative control. Thereafter, the cells were seeded in a 96-well V-bottom plate (Corning, #3894) at 100 μL/well and centrifuged at 4° C. for 5 min, and the supernatant was discarded. Then, the serially diluted antibody molecules were added to the 96-well plate at 100 μL/well, and the mixtures were well mixed. […]
Then, the cells in each well were rinsed twice with 100 μL of pre-cooled FACS buffer (PBS buffer containing 0.5% BSA) and centrifuged at 500 g at 4° C. for 5 min, and then the supernatant was discarded. […] Fluorescence signal values were read using a BD FACS CANTOII flow cytometer, and the data were processed and analyzed using FlowJo v10 (FlowJo, LLC) software. The data were processed and analyzed by plotting using GraphPad Prism 8 software, and binding curves of the antibodies to target cells, EC₅₀ values and other parameters were obtained through four-parameter nonlinear fitting.

In the next test the target is T3, human 5T4 (human, UniProt Q13641 32-420).
T3 construct: whole, on cells; also called trophoblast glycoprotein; TPBG
T3 sequence (looked up): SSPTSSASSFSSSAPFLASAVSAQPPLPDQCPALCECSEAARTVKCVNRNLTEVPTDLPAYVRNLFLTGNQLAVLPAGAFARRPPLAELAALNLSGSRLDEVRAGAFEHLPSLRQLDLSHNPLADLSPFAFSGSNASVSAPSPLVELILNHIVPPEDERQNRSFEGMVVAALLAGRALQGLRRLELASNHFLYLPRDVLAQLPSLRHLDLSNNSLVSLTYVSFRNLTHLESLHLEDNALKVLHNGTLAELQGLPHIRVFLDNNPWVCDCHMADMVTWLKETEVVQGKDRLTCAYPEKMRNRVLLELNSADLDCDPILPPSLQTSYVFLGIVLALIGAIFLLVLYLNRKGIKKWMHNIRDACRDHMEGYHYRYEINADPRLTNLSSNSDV
The experiment in a line: flow cytometry (FACS) on HCC1954 cells highly expressing human 5T4. The procedure:
The binding ability of the antibody molecules to a human breast cancer cell strain HCC1954 (ATCC, CRL-2338) highly expressing human 5T4 was determined by flow cytometry FACS. Specifically, the cell density was adjusted to 1×10⁶ cells/mL. The cells were seeded in a 96-well V-bottom plate (Corning, #3894) at 100 μL/well, followed by the addition of test antibodies diluted in a 3-fold gradient at a concentration that was 2 times the final concentration, each at 100 μL/well. The cells were incubated at 4° C. for 1 h away from light. Thereafter, the cells in each well were rinsed twice with 100 μL of pre-cooled PBS, and centrifuged at 500 g at 4° C. for 5 min, and then the supernatant was discarded. Thereafter, a fluorescent secondary antibody (Alexa Fluor 488-conjugated AffiniPure Goat Anti-Human IgG, Fcγ Fragment Specific, Jackson ImmunoResearch Inc., #109-545-098, diluted in a 1:500 ratio) was added at 100 μL/well, and the plate was incubated at 4° C. for 30 min away from light. The cells in each well were then rinsed twice with 100 μL of pre-cooled PBS and centrifuged at 500 g at 4° C. for 5 min, and then the supernatant was discarded. Finally, the cells in each well were resuspended in 200 μL of pre-cooled PBS. Fluorescence signal values were read using a BD FACS CANTOII flow cytometer, and the data were processed and analyzed using FlowJo v10 (FlowJo, LLC) software.

Positions count from the first letter of the chain named.

B1: PR004433-ADC (antibody, human IgG1, V domains shown)
VH: EVQLVETGGGLIQPGGSLRLSCAASGFTVSDSYMTWVRQAPGKGLEWVSVIFSGGRTYYSDSVKGRFTISRDNAKNTLYLQMNSLRAEDTALYYCARRNYDDTRGTDVFDIWGQGTMVTVSS
modifications: mc-vc-PAB-MMAE coupled to Cys-220 (Eu numbering; 98% of the site coupled)
notes: Coupling product of HCAb PR004433 with mc-vc-PAB-MMAE, main component DAR=2; also called coupling product PR004433-ADC
For the molecule B1, the binding result with human BCMA [1] is given as “binds”.

B2: PR001046-ADC (antibody, human IgG1, V domains shown)
VH: B1 VH with S32N, R56N, S60A
modifications: mc-vc-PAB-MMAE coupled mainly to the cysteine at site 127 (Cys-220 according to Eu numbering)
notes: Purified coupling product of HCAb PR001046 with mc-vc-PAB-MMAE, main component DAR=2; also called coupling product PR001046-ADC
As to B2, the binding result with human BCMA [2] was “binds”.

B3: HCAb PR001046 (antibody, human IgG1, V domains shown)
VH: B1 VH with S32N, R56N, S60A
notes: Fully human heavy-chain-only antibody with human IgG1 hinge and Fc; also called 1005P63B7; anti-BCMA HCAb antibody PR001046
As for B3, the binding result with human BCMA [2] is recorded as “binds”.

B4: HCAb PR000020 (antibody, human IgG1, V domains shown)
VH: EVQLVETGGGLIQPGGSLRLSCAASGLNVSRHYLSWVRQAPGKGLEWVAVIYSGGGIEYVDSVKGRFTISRDNANNTLYLQMRSLRTEDSAVYYCARAIPRPHGSDIWGQGTMVTVSS
notes: Fully human heavy-chain-only antibody (VH, human IgG1 hinge, CH2, CH3), dimer of two heavy chains, no light chain; also called CL24; anti-CTLA4 HCAb antibody PR000020
On to B4, for which the binding result with human CTLA4 is recorded as “binds”.

B5: PR000020-ADC (antibody, human IgG1, V domains shown)
VH: B4 VH
modifications: mc-vc-PAB-MMAE coupled to C124 (Cys-220 according to Eu numbering)
notes: Purified coupling product of HCAb PR000020 with mc-vc-PAB-MMAE, main component DAR=2; also called coupling product PR000020-ADC
Turning to B5, the binding result in the test with human CTLA4 was “binds”.

B6: HCAb PR004432 (antibody, human IgG1, V domains shown)
VH: EVQLQQSGPGLVKPSQTLSLTCAISGDSVSNNYAAWNWIRQSPSRGLEWLGRTYYRSKWYNDYAVSVKSRITINPDTSKNQFSLQLNRVTPEDTAVYYCARDNYYGSGSPPVDALDIWGQGTMVTVSS
notes: Fully human heavy-chain-only antibody with human IgG1 hinge and Fc; also called 1041P014H2; anti-5T4 HCAb antibody PR004432
For the molecule B6, the binding result with human 5T4 is reported as “binds”.

B7: PR004432-ADC (antibody, human IgG1, V domains shown)
VH: B6 VH
modifications: mc-vc-PAB-MMAE coupled to Cys-220 (Eu numbering; 97.12% of the site coupled)
notes: Purified coupling product of HCAb PR004432 with mc-vc-PAB-MMAE, main component DAR=2; also called coupling product PR004432-ADC
For B7, the binding result with human 5T4 was “binds”.

The record behind these values is patent US20240050583A1 (HARBOUR BIOMED SHANGHAI, published 2024).
